# How the values were obtained:
# Experiment in all cases: purified protein
# CC(=O)NCCc1ccc(O)c(O)c1 = type: biochemical, Tribolium castaneum; conditions: pH 5.5, 0.1 M sodium acetate
# [1] = test system: NCCC(=O)NCCc1ccc(O)c(O)c1; type: biochemical, Tribolium castaneum; conditions: pH 5.5, 0.1 M sodium acetate
# NCCc1ccc(O)c(O)c1 = type: biochemical, Tribolium castaneum; conditions: pH 6.0, 0.1 M Mes
# Oc1ccc(O)cc1 = type: biochemical, Tribolium castaneum; conditions: pH 5.5, 0.1 M sodium acetate (pH optimum not determined)
# Oc1ccccc1O = type: biochemical, Tribolium castaneum; conditions: pH 5.5, 0.1 M sodium acetate (pH optimum not determined)
# purified protein [2] = substrate: CC(=O)NCCc1ccc(O)c(O)c1; type: biochemical, Anopheles gambiae
# purified protein [3] = substrate: NCCC(=O)NCCc1ccc(O)c(O)c1; type: biochemical, Anopheles gambiae; conditions: pH 5.5, 0.1 M sodium acetate
# purified protein [4] = substrate: NCCc1ccc(O)c(O)c1; type: biochemical, Anopheles gambiae
# purified protein [5] = substrate: Oc1ccc(O)cc1; type: biochemical, Anopheles gambiae; conditions: pH 5.5, 0.1 M sodium acetate (pH optimum not determined)
# purified protein [6] = substrate: Oc1ccccc1O; type: biochemical, Anopheles gambiae; conditions: pH 5.5, 0.1 M sodium acetate (pH optimum not determined)
# purified protein [7] = substrate: N[C@@H](Cc1ccc(O)c(O)c1)C(=O)O; type: biochemical, Manduca sexta; conditions: pH 6.0, 0.1 M Mes, 0.1 % cetylpyridinium as activator
# purified protein [8] = substrate: CC(=O)NCCc1ccc(O)c(O)c1; type: biochemical, Tribolium castaneum; conditions: pH 5.5, 0.1 M sodium acetate; remark: listed apart in the source
# purified protein [9] = substrate: NCCC(=O)NCCc1ccc(O)c(O)c1; type: biochemical, Tribolium castaneum; conditions: pH 5.5, 0.1 M sodium acetate; remark: listed apart in the source
# purified protein [10] = substrate: NCCc1ccc(O)c(O)c1; type: biochemical, Tribolium castaneum; conditions: pH 5.5, 0.1 M sodium acetate
# purified protein [11] = substrate: Oc1ccc(O)cc1; type: biochemical, Tribolium castaneum; conditions: pH 5.5, 0.1 M sodium acetate (pH optimum not determined); remark: listed apart in the source
# purified protein [12] = substrate: Oc1ccccc1O; type: biochemical, Tribolium castaneum; conditions: pH 5.5, 0.1 M sodium acetate (pH optimum not determined); remark: listed apart in the source
molecule,measurement,setting,value
TcLac2B (Tribolium castaneum; G182D/T93A),Km,CC(=O)NCCc1ccc(O)c(O)c1,600 µM
same,kcat,CC(=O)NCCc1ccc(O)c(O)c1,5.5 s⁻¹
same,kcat/Km,CC(=O)NCCc1ccc(O)c(O)c1,9170 M⁻¹ s⁻¹
same,Km,[1],4000 µM
same,kcat,[1],18.8 s⁻¹
same,kcat/Km,[1],4700 M⁻¹ s⁻¹
same,Km,NCCc1ccc(O)c(O)c1,2000 µM
same,kcat,NCCc1ccc(O)c(O)c1,7.5 s⁻¹
same,kcat/Km,NCCc1ccc(O)c(O)c1,3750 M⁻¹ s⁻¹
same,Km,Oc1ccc(O)cc1,2000 µM
same,kcat,Oc1ccc(O)cc1,9.2 s⁻¹
same,kcat/Km,Oc1ccc(O)cc1,4600 M⁻¹ s⁻¹
same,Km,Oc1ccccc1O,12000 µM
same,kcat,Oc1ccccc1O,10.8 s⁻¹
same,kcat/Km,Oc1ccccc1O,900 M⁻¹ s⁻¹
AgMCO2A (Anopheles gambiae) (protein) VRVQQHTSRRFKDESFGHDQTPAGSWWSSHLTEPPSNFYQATHGLLQTHPSVPSLKPVAGAPAAPGPSALPLSSRKSPTVSSAAALNSGFPSIANPNPRSPFRHLDFSTSATAELRRNPSLSAPDECARACREGEPPRICYYHFTVEYYTVLGAACQVCTPNATNTVWSHCQCVLADGVERGILTVNRMIPGPSIQVCENDRVVIDVENHMEGMELTIHWHGIWQRGTQYYDGVPFVTQCPIQQGNTFRYQWTGNAGTHFWHAHTGLQKLDGLYGSIVVRQPPSRDPNSHLYDFDLTTHIMLVSDWLHEDAAERYPGRLAVNTGQDPESLLINGKGQFRDPNTGFMTNTPLEIFTITPGRRYRFRMINAFASVCPAQVTIEGHALTVIATDGEPVHPAQVNTIISFSGERYDFVITADQPVGAYWIQLRGLGECGIKRAQQLAILRYARGPYQPASPPPTYDVGLPQGVVMNPLDAQCNVQRDDAICVSQLKNAKEIDRALLQDKPDVKIFLPFRFYLYRPEELFQPNTYNRFLVAPTGDHVISLIDEISYLSAPAPLLSQYDDINPEQFCNGDNRPADCGANCMCTHKVDIPLNAIVEVVLVDEVQQPNLSHPFHLHGYAYNVVGIGRSPDSNVKKINLKHALDLDRRGLLHRQYNLPPLKDTIAVPNNGYVVLRFRADNPGFWLFHCHFLFHIVIGMNLILQVGTHADLPPVPPNFPTCGDHLPPIN,Km,"purified protein [2]; pH 5.5, 0.1 M sodium acetate",300 µM
same,kcat,"purified protein [2]; pH 5.5, 0.1 M sodium acetate",1.53 s⁻¹
same,kcat/Km,"purified protein [2]; pH 5.5, 0.1 M sodium acetate",5120 M⁻¹ s⁻¹
same,Km,purified protein [3],1000 µM
same,kcat,purified protein [3],3.65 s⁻¹
same,kcat/Km,purified protein [3],3650 M⁻¹ s⁻¹
same,Km,"purified protein [4]; pH 7.5, 0.1 M sodium phosphate",500 µM
same,kcat,"purified protein [4]; pH 7.5, 0.1 M sodium phosphate",0.8 s⁻¹
same,kcat/Km,"purified protein [4]; pH 7.5, 0.1 M sodium phosphate",1600 M⁻¹ s⁻¹
same,Km,purified protein [5],2000 µM
same,kcat,purified protein [5],3.82 s⁻¹
same,kcat/Km,purified protein [5],1900 M⁻¹ s⁻¹
AgMCO2B (Anopheles gambiae) (protein) VRVQQHTSRRFKDESFGHDQTPAGSWWSSHLTEPPSNFYQATHGLLQTHPSVPSLKPVAGAPAAPGPSALPLSSRKSPTVSSAAALNSGFPSIANPNPRSPFRHLDFSTSATAELRRNPSLSAPDECARACREGEPPRICYYHFTVEYYTVLGAACQVCTPNATNTVWSHCQCVLADGVERGILTVNRMIPGPSIQVCENDRVVIDVENHMEGMELTIHWHGIWQRGTQYYDGVPFVTQCPIQQGNTFRYQWTGNAGTHFWHAHTGLQKLDGLYGSIVVRQPPSRDPNSHLYDFDLTTHIMLVSDWLHEDAAERYPGRLAVNTGQDPESLLINGKGQFRDPNTGFMTNTPLEIFTITPGRRYRFRMINAFASVCPAQVTIEGHALTVIATDGEPVHPVQVNTIISFSGERYDFVITADQPVGAYWIQLRGLGECGIKRAQQLAILRYARGPYQPASPPPTYDVGLPQGVVMNPLDAVCNVPRPDAVCVSNLRNAKKADKAVLSERPDVKIFLPFRFYFYRVEELFTPNTYNKFLVAPGGDHLISLIDEISYVSPPSPMLSQINDIPPEQFCNGDNRPPDCGPNCMCTHKVDIPLNAIVEVVLVDEVQQENLSHPFHLHGHAFHVIGMGRSPDSTVKKINLRHTLDLDRRGLLNRQFNLPPLKDTIAVPNNGYVVLRFRADNPGYWLFHCHFQFHIVIGMNLVVHIGTHADLPPVPPNFPRCGNHIPPIKYN,Km,"purified protein [2]; pH 5.0, 0.1 M sodium acetate",700 µM
same,kcat,"purified protein [2]; pH 5.0, 0.1 M sodium acetate",2.12 s⁻¹
same,kcat/Km,"purified protein [2]; pH 5.0, 0.1 M sodium acetate",3020 M⁻¹ s⁻¹
same,Km,purified protein [3],2000 µM
same,kcat,purified protein [3],6.35 s⁻¹
same,kcat/Km,purified protein [3],3170 M⁻¹ s⁻¹
same,Km,"purified protein [4]; pH 5.5, 0.1 M sodium acetate",300 µM
same,kcat,"purified protein [4]; pH 5.5, 0.1 M sodium acetate",1.05 s⁻¹
same,kcat/Km,"purified protein [4]; pH 5.5, 0.1 M sodium acetate",3500 M⁻¹ s⁻¹
same,Km,purified protein [5],800 µM
same,kcat,purified protein [5],4.2 s⁻¹
same,kcat/Km,purified protein [5],5250 M⁻¹ s⁻¹
same,Km,purified protein [6],4000 µM
same,kcat,purified protein [6],2.98 s⁻¹
same,kcat/Km,purified protein [6],750 M⁻¹ s⁻¹
phenoloxidase (prophenoloxidase from M. sexta hemolymph) (Manduca sexta) (protein) chain 1: TDAKNNLLYFFDRPNEPCFMQKGEDKVVFEIPDHYYPDKYKSLSNTLSNRFGNEATKRIPIRNITLPNLEVPMQLPYNDQFSLFVPKHRTMAAKLIDIFMGMRDVEDLQSVCSYCQLRINPYMFNYCLSVAILHRPDTKGLSIPTFAETFPDKFMDSKVFLRAREVSNVVISGSRMPVNVPINYTANTTEPEQRVAYFREDIGINLHHWHWHLVYPFDSADRSIVNKDRRGELFYYMHQQIIGRYNVERMCNGLPQVKPFSDFSAPIEEGYFPKLDSQVASRTWPPRFAGSVFRNLDRTVDQVKIDVRKLFTWRDQFLEAIQKMAIKMPNGRELPLDEVTGIDMLGNLMESSIISPNRGYYGDLHNMGHVFAAYTHDPDHRHLEQFGVMGDSATAMRDPFFYRWHRFVDDVFNIYKEKLTPYTNERLDFPGVRVSSVGIEGARPNTLRTLWQQSTVELGRGLDFTPRGSVLARFTHLQHDEFQYVIEVNNTTGGNLMGTVRIFMAPKVDDNGQPMSFNKQRRLMIELDKFSQALRPGTNTIRRRSVDSSVTIPYERTFRNQSERPGDPGTAGAAEFDFCGCGWPHHMLIPKGTAQGYPVVLFVMISNWNNDRIEQDLVGSCNDAASYCGIRDRKYPDKQAMGYPFDRKMANDAATLSDFLRPNMAVRDCSIQFSDTTVERGQQG chain 2: ADIFDSFELLYDRPGEPMINTKGEDKVLFELTEQFLTPEYANNGLELNNRFGDEEEVSRKIILKNLDKIPEFPKAKQLPNDADFSLFLPSHQEMANEVIDVLMSVTENQLQELLSTCVYARINLNPQLFNYCYTVAIMHRRDTGKVRVQNYAEIFPAKFLDSQVFTQAREAAAVIPKTIPRTPIIIPRDYTATDLEEEHRLAYWREDLGINLHHWHWHLVYPFSASDEKIVAKDRRGELFFYMHQQIIARYNCERLCNSLKRVKKFSDWREPIPEAYYPKLDSLTSARGWPPRQAGMRWQDLKRPVDGLNVTIDDMERYRRNIEEAIATGNVILPDKSTKKLDIDMLGNMMEASVLSPNRDLYGSIHNNMHSFSAYMHDPEHRYLESFGVIADEATTMRDPFFYRVHAWVDDIFQSFKEAPHNVRPYSRSQLENPGVQVTSVAVESAGGQQNVLNTFWMQSDVNLSKGLDFSDRGPVYARFTHLNHRPFRYVIKANNTASARRTTVRIFIAPKTDERNLPWALSDQRKMFIEMDRFVVPLSAGENTITRQSTESSLTIPFEQTFRDLSIQGSDPRRSELAAFNYCGCGWPQHMLVPKGTVGGVAYQLFVMLSNYELDKIEQPDGRELSCVEASMFCGLKDKKYPDARPMGYPFDRPSNSATNIEDFSAMSNMGLQDIVIKLSDVTEPNPRNPPA,Km,purified protein [7],2000 µM
same,kcat,purified protein [7],6.02 s⁻¹
TcLac2A (Tribolium castaneum) (protein) VRAPGAKKKVGPIDQSAAAASWHDFDNSDFFQSEHAVIQTHPSIGGGPRFSSGGGRKAWKHLDFRNSAAAELLKNPSLSSPDECARACREGEPPRICYYHFTLELYTVLGAACQVCTPNATNTVWSHCQCVLADGVERGILTANRMIPGPSIQVCEGDKVVIDVENHIEGNEVTLHWHGVWQRGSQYYDGVPFVTQCPIQQGNTFRYQWIAGNAGTHFWHAHTGLQKMDGLYGSVVIRQPPAKDPNSHLYDYDLTTHVMLLSDWMHEDATERFPGRLAVNTGQDPESLLINGKGQFRDPNTGFMTNTPLEVFTITPGRRYRFRMINSFASVCPAQLTIQGHDLTLIATDGEPVHPVRVNTIISFSGERYDFVINADQTPGAYWIQLRGLGECGIRRVQQLGILRYAKGPYQPSQAPPTYDYGIPQGVVLNPLDARCNEIRPDAICVSQLKNALSIDKGILREKPDVKIFLPFRFHIYTPEDLFAPNTYNRHLVAPNGDHVISLIDEISYMAPPAPLISQYDDIDPQQFCNGDNRPADCQQNCMCTHKVDIPLNAIVEIVLVDEVQQPNLSHPFHLHGYAFNVIGIGRSPDQNVKKINLKHALDLDRQGLLHRQFNLPPAKDTIAVPNNGYVVLRLRANNPGFWLFHCHFLFHIVIGMNLVLQVGTHADLPPVPPNFPTCGDHVPEINSNPNLV,Km,purified protein [8],700 µM
same,kcat,purified protein [8],2.45 s⁻¹
same,kcat/Km,purified protein [8],3500 M⁻¹ s⁻¹
same,Km,purified protein [9],1000 µM
same,kcat,purified protein [9],2.75 s⁻¹
same,kcat/Km,purified protein [9],2750 M⁻¹ s⁻¹
same,Km,purified protein [10],800 µM
same,kcat,purified protein [10],0.683 s⁻¹
same,kcat/Km,purified protein [10],850 M⁻¹ s⁻¹
same,Km,purified protein [11],1000 µM
same,kcat,purified protein [11],3.55 s⁻¹
same,kcat/Km,purified protein [11],3550 M⁻¹ s⁻¹
same,Km,purified protein [12],6000 µM
same,kcat,purified protein [12],4.03 s⁻¹
same,kcat/Km,purified protein [12],667 M⁻¹ s⁻¹
